Laboratory results: US20240279357A1 (THERINI BIO, published 2024)

T1: P2 peptide comprising SEQ ID NO: 31 (human fibrin γ377-395) (human)
T1 construct: Bought (CPC Scientific 920712); also called human P2 peptide
T1 peptide: YSMKKTTMKIIPFNRLTIG


Molecular target: T1, P2 peptide comprising SEQ ID NO: 31 …
Experiment: SPR (Biacore) single cycle, steady state affinity; IgG from HEK supernatant captured, γ377-395 peptide analyte

Row | Binder | Kd [µM] | Relative KD [fold against VH5/VK2]
1 | VH5 C102L/VK2 (antibody, IgG1, V domains shown, IgG1, tested from HEK supernatant; also called VH5-102L) VH: QVQLVQSGAEVKKPGSSVKVSCKASGYTFTSYWIHWVRQAPGQGLEWIGLIDPSDSYTNYNQKFRGRVTITRDTSTSTAYMELSSLRSEDTAVYYCASSDPTGLWGQGTTVTVSS VL: DIVMTQAAFSNPVTPGTPASISCRSSKSLLHSSGITYLSWYLQKPGQSPQLLIYQMSNLASGVPDRFSSSGSGTDFTLKISRVEAEDVGVYYCAQNLELPLTFGQGTKLEIK | 140 | 1.77
2 | VH5 C102S/VK2 (antibody, IgG1, V domains shown, IgG1, tested from HEK supernatant) VH: QVQLVQSGAEVKKPGSSVKVSCKASGYTFTSYWIHWVRQAPGQGLEWIGLIDPSDSYTNYNQKFRGRVTITRDTSTSTAYMELSSLRSEDTAVYYCASSDPTGSWGQGTTVTVSS VL: DIVMTQAAFSNPVTPGTPASISCRSSKSLLHSSGITYLSWYLQKPGQSPQLLIYQMSNLASGVPDRFSSSGSGTDFTLKISRVEAEDVGVYYCAQNLELPLTFGQGTKLEIK | 110 | 1.33

Continued, values first:

Row | Kd [µM] | Relative KD [fold against VH5/VK2] | Binder
3 | 110 | 1.44 | VH5 C102A/VK2 (antibody, IgG1, V domains shown, IgG1, tested from HEK supernatant) VH: QVQLVQSGAEVKKPGSSVKVSCKASGYTFTSYWIHWVRQAPGQGLEWIGLIDPSDSYTNYNQKFRGRVTITRDTSTSTAYMELSSLRSEDTAVYYCASSDPTGAWGQGTTVTVSS VL: DIVMTQAAFSNPVTPGTPASISCRSSKSLLHSSGITYLSWYLQKPGQSPQLLIYQMSNLASGVPDRFSSSGSGTDFTLKISRVEAEDVGVYYCAQNLELPLTFGQGTKLEIK
4 | 39 | 0.5 | humanized anti-fibrin antibody variant VH5 C102G/VK2 (antibody, IgG1, V domains shown, IgG1, tested from HEK supernatant in the SPR assay; also called VH5 C102G/Vκ2; VH5-102G) VH: QVQLVQSGAEVKKPGSSVKVSCKASGYTFTSYWIHWVRQAPGQGLEWIGLIDPSDSYTNYNQKFRGRVTITRDTSTSTAYMELSSLRSEDTAVYYCASSDPTGGWGQGTTVTVSS VL: DIVMTQAAFSNPVTPGTPASISCRSSKSLLHSSGITYLSWYLQKPGQSPQLLIYQMSNLASGVPDRFSSSGSGTDFTLKISRVEAEDVGVYYCAQNLELPLTFGQGTKLEIK
